This data set can be described thus: soluble on expression in E. coli; label from the status in PepcDB or PDB records.
Turning to “GPGSMQEIIDTVNRYTLRSAAFRDKPTPGLAARQFLCSLLLHRKLDSIRLSSIARYMFSTEALIAVSRDGIQTISCEGNTLWPICTIPNGLTSEISGVAVTPEGTLVCSSNGICYLEGENLRVAEDCASSSYAQNVLCISCTPDGRYIATGGGTATVTVWTSDLKPLHHFAGHTDWVRFVKFARGRSPALQLFSTGDDGVICQWDVLAGSLISRVDYSLGESIQLFEVSYYSGLMAISSGTSLIALYCPQSDNTTRAVGEDVLRLQPMALITGAHEYTPTAGKFTDDSQWLASASEDETIALTYVLDPQTCFVCKKFVTRRRCFSFMNIFNSICILAAPPVSSVIVIAACSSDGTVVQWVVDPRTNRASYTKKLQLHLGSFLGMDLIPGDDLNHLL”, the “soluble on expression in E. coli” value is given as “not soluble”.
Take “MAKKKSVFTCQECGYQSPKYLGRCPNCSAWSSFVEEVEVQEVKNARVSLNGEKSRPTKLKDVSSINYSRTKTDMDEFNRVLGGGVVPGSLVLIGGDPGIGKSTLLLQVSTQLANKGTVLYVSGEESAEQIKLRSERLGDIDNEFYLYAETNMQSIRSEIEKIKPDFLIIDSIQTIMSPEVSSVQGSVSQVREVTAELMQLAKTNNIATFIVGHVTKEGTLAGPRMLEHMVDTVLYFEGERHHTFRILRAVKNRFGSTNEIGIFEMQSGGLVEVLNPSQVFLEERLDGATGSAIVVTMEGTRPILAEVQALVTPTVFGNAKRTTTGLDFNRVSLIMAVLEKRCGLLLQNQDAYLKSAGGVKLDEPAIDLAVAVAIASSYKEKPTNPQESFIGEIGLTGEIRRVTRIEQRINEASKLGFTKIYAPKNSLAGIEIPKGIDVIGVTTVSQVLKAVFST”: the “soluble on expression in E. coli” value was “not soluble”.
In the case of “MKRTKKEFTPYNEYHDRPFELKWATAFALGELQEGIEASDEYSKRAFERLPQQTTEEIEEYLEQSLKNNQVLEIQLNTLDDFGRVQPPIVGVFEGMSSMEYVKVGHTHILFEEIRHIKSHEFTKWSSLD” it was “not soluble”; in that of “MDMKKWLVATALIATTISGVTQAKEWKTVRFGIEGAYPPFSWTEADGSLKGFDVDMANALCAEMQVECKIVPQDWDGIIPSLLARKYDAIIAAMSITEERKKKVDFTGKYAQIPNKFIAKKGADLAFTKEGLKGVKIGVQRATTHDKYITDNYGDTVDIVRYGSFDEAYLDLANGRIAAVLGDASALEEGMLNKPGGDAYEFVGPSLTDPKWFGEGMGIAVRKQDKELTEKLDAAITALREKGIYQQIQAKYFKYDVYGE”, “not soluble”; in that of “MSLKKAKLIFKDNTPFSLDFDDFYFNSKDGLNESKFVYTHSFEWKNQENFIIAESGFGIGLNFFLTLKRLLETTPSKRPKKLFYISVEAFYIEKEQLREIYQKLEFYEEFKELLEQFLKFYPKAKEGIYRFYFEDCFLDLVFEDIAVLKELDFKADVWYLDGFSPNKNLQMFDENLIFEVARLSKKNTQICTFSSASFLQKNLKKYGFRVEKTKGFRKREMIKAYLENELEFKDKEAYFSRTEGHHHHHH”, “soluble”.
Turning to “MVKVEDAIVARLESHGYHFEILVDPDAIERIRKGNIDIENDLAFPEVYKDVRKGEKASDDSLKEAFKTTVIAQVAIEIVKKGQIQLTTEQRREMYDERRKQIVNLIAREGINPQTNTPHTPYRISQAMDEAKVKIDPLKPAEDQVQNVLKAIMPIIPIRLEKAKIAVKLIGDAYGKLYGELAKSGYM”, the “soluble on expression in E. coli” value is recorded as “not soluble”.
In the case of “VINQVESASKVIDWPLALKRSANKADLAKEMLLGLVESLPETQLSIREAIDVQDIAQIKRLVHKLNGACCYTGTPNLAKITIQLETQLKMGLSTEELEPEFLEFFEHIEQVLFAVPEALKEMSEN” it was “not soluble”; in that of “MGSDKIHHHHHHMRKLLNTLYVTSPNTYLSLDGENIVILKDDVEALRVPLHNLESIIAFGYTGASPALMGACAKRNISLSFMKSNGKFLGRVVGEVRGNVTLRKAQYRLSDDEATSHRIAKSFILGKVYNSRWVVERATRDHGARLDVEKLKGVCQTLANALRLVENSKDLDQLRGVEGEAAAQYFRVLDDLILQQKEDFYFKCRNKRPPLDNVNAMLSFIYTLLAHDAAAALETVGLDPYVGFLHRDRPGRISLALDLMEELRAVFADRFVLSLINRREVNPSGFTRMENGAVVMDDDTRRDILKAWQSRKQEEIKHPFLQEKMEWGLVPYAQAMLLARFIRGDLDGYPAFMWK”, “not soluble”.
